What was measured:
[1] = target: T1, Cynomolgus CD3 epsilon-delta (cynomolgus); assay: SPR, CD3 captured by anti-His, 25 C
T1 chain: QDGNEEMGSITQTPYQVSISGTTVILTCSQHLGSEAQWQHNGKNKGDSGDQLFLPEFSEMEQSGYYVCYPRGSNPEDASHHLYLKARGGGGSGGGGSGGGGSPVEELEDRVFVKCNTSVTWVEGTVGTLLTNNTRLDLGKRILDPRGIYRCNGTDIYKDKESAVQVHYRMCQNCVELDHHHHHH

[2] = target: Human CD3 on naive human T cells (human, UniProt P07766 23-207); assay: cell-based or functional assay
[3] = target: T2, GUCY2C_ECD Peptide 54 (human); assay: peptide DELFIA ELISA;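 note: epitope mapping using overlapping 20-mer GUCY2C peptides covering residues 1-440, extracellular into transmembrane domain, coated at 20 µg/ml as target antigen and probed with antibodies or GUCY2C-CD3 bispecifics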
T2 peptide: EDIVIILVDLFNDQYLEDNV

[4] = target: T3, GUCY2C_ECD Peptide 37 (human); assay: peptide DELFIA ELISA;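 note: epitope mapping using overlapping 20-mer GUCY2C peptides covering residues 1-440, extracellular into transmembrane domain, coated at 20 µg/ml as target antigen and probed with antibodies or GUCY2C-CD3 bispecifics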
T3 peptide: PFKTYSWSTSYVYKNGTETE

[5] = target: T4, GUCY2C_ECD Peptide 43 (human); assay: peptide DELFIA ELISA;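 note: epitope mapping using overlapping 20-mer GUCY2C peptides covering residues 1-440, extracellular into transmembrane domain, coated at 20 µg/ml as target antigen and probed with antibodies or GUCY2C-CD3 bispecifics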
T4 peptide: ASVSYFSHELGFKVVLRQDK

[6] = target: T5, GUCY2C_ECD Peptide 45 (human); assay: peptide DELFIA ELISA;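 note: epitope mapping using overlapping 20-mer GUCY2C peptides covering residues 1-440, extracellular into transmembrane domain, coated at 20 µg/ml as target antigen and probed with antibodies or GUCY2C-CD3 bispecifics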
T5 peptide: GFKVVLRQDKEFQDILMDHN

[7] = target: T6, GUCY2C_ECD Peptide 19 (human); assay: peptide DELFIA ELISA
T6 construct: also called GUCY2c peptide 19; GUCY2c-ECD peptide number 19
T6 peptide: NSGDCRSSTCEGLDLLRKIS

[8] = target: T7, GUCY2C_ECD Peptide 38 (human); assay: peptide DELFIA ELISA
T7 peptide: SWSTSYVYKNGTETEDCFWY

[9] = target: T8, GUCY2C_ECD Peptide 22 (human); assay: peptide DELFIA ELISA
T8 peptide: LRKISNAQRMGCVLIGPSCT

[10] = target: T9, GUCY2C_ECD Peptide 84 (human); assay: peptide DELFIA ELISA
T9 peptide: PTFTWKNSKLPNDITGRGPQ

[11] = target: T10, Human GUCY2c on tumor cells (T84, HT55) (human, UniProt P25092 24-1073); assay: flow cytometry titration on T84 tumor cells (PE-A Geo Mean against Ab in nM)
T10 construct: Endogenous receptor; also called GUCY2c expressing cell lines; T84 cells expressing human GUCY2c
T10 sequence (P25092 24-1073 limits assumed): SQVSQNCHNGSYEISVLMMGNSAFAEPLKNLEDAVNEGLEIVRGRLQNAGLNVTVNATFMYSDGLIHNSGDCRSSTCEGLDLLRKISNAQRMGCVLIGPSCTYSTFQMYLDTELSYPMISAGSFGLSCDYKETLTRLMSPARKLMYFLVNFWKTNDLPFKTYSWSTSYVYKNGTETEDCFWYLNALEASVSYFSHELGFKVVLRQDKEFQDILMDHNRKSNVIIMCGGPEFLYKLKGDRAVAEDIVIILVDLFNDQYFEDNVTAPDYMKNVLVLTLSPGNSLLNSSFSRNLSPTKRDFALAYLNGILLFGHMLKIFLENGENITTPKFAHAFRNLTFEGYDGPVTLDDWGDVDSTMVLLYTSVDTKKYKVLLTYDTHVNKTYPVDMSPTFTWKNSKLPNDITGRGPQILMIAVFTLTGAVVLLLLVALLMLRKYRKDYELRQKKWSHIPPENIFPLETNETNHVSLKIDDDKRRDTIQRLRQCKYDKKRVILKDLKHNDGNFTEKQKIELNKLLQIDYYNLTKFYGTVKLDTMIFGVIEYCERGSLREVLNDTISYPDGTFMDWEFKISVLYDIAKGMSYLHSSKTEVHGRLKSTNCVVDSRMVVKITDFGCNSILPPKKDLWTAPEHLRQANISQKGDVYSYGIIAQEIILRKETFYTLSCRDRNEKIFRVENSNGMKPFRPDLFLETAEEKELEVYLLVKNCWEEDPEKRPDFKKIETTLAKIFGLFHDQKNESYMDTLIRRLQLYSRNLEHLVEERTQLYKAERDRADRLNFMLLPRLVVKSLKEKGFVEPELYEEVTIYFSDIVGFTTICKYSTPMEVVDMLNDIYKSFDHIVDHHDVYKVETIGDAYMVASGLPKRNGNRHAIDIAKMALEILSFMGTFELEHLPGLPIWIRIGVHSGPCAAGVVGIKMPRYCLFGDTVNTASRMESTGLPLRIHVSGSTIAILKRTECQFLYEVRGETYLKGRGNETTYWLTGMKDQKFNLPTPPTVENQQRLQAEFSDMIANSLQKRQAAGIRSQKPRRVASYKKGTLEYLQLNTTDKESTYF

[12] = target: CID1941 (human GUCY2c point mutant) (human); assay: flow cytometry on cells displaying the construct
[13] = target: T11, Human CD3 epsilon-delta (human); assay: SPR, CD3 captured by anti-His, 25 C
T11 construct: Single-chain epsilon-linker-delta with His6; also called huCD3
T11 chain: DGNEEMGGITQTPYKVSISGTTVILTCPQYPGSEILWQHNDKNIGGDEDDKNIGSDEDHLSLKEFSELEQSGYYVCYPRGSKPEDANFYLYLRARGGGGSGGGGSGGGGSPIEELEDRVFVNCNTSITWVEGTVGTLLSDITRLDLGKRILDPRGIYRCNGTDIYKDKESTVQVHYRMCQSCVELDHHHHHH

[14] = target: T12, Murine GUCY2C-ECD cleaved (mouse, UniProt Q3UWA6 20-433); assay: SPR, GUCY2c directly immobilized, 37 C
T12 sequence: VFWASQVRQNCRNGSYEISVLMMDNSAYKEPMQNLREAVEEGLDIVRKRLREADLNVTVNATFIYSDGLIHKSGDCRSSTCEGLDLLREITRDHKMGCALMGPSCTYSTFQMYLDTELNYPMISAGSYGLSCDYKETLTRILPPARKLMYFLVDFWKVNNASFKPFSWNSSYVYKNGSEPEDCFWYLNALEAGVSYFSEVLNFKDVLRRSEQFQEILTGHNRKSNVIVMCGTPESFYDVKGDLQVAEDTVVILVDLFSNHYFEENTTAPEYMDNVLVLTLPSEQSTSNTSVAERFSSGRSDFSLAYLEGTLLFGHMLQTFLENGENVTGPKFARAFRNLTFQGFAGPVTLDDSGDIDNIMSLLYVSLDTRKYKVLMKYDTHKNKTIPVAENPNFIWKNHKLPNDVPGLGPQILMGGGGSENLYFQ

[15] = target: T13, Human GUCY2C full length (SEQ ID NO: 224), recombinant protein (human, UniProt P25092 24-430, limits assumed); assay: SPR, GUCY2c directly immobilized, 25 C
T13 construct: also called huGUCY2C; biotinylated human GUCY2c
T13 sequence (P25092 24-430 F281L limits assumed): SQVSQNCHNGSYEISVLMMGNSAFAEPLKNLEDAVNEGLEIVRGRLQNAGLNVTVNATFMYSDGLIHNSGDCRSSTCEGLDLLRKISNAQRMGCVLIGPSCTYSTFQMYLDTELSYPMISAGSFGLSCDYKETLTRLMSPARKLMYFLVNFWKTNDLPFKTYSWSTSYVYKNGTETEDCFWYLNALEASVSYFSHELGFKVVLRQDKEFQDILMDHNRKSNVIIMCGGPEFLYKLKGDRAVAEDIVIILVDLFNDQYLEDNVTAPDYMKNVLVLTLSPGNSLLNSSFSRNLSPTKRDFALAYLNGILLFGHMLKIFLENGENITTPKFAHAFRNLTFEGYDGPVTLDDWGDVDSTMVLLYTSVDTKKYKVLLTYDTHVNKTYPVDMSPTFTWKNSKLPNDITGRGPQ

[16] = target: T11, Human CD3 epsilon-delta; assay: SPR, CD3 captured by anti-His, printed 25 C (Table 33C)

B1: GUCY2C-1608 (bispecific antibody)
chain 1: DIQLTQSPSSLSASVGDRVTITCRASESVDYYGSSLLQWYQQKPGKAPKLLIYAASKLASGVPSRFSGSGSGTDFTLTISSLQPEDFATYYCQQTRKAYTFGQGTKLEIKGGGSGGGGEVQLVESGGGLVQPGGSLRLSCAASGFTFSDYYMTWVRQAPGKGLEWVAFIRNQARGYTSDHNPSVKGRFTISRDNAKNSLYLQMNSLRAEDTAVYYCARDRPSYYVLDYWGQGTTVTVSSGCPPCPAPEAAGAPSVFLFPPKPKDTLMISRTPEVTCVVVDVSHEDPEVKFNWYVDGVEVHNAKTKPREEQYNSTYRVVSVLTVLHQDWLNGKEYKCKVSNKALPAPIEKTISKAKGQPREPQVCTLPPSREEMTKNQVSLWCLVKGFYPSDIAVEWESNGQPENNYKTTPPVLDSDGSFFLYSKLTVDKSRWQQGNVFSCSVMHEALHNHYTQKSLSLSPG
chain 2: DIQMTQSPSSLSASVGDRVTITCTSSQSLFNVRSQKNYLAWYQQKPGKAPKLLIYWASTRESGVPSRFSGSGSGTDFTLTISSLQPEDFATYYCKQSYDLFTFGGGTKVEIKGGGGSGGGGEVQLVESGGGLVQPGGSLRLSCAASGFTFSSYWMHWVRQAPGKGLEWIGEIKPSNELTNVHEKFKDRFTISVDKAKNSAYLQMNSLRAEDTAVYYCTRTITTTEGYWFFDVWGQGTLVTVSSGCPPCPAPEAAGAPSVFLFPPKPKDTLMISRTPEVTCVVVDVSHEDPEVKFNWYVDGVEVHNAKTKPREEQYNSTYRVVSVLTVLHQDWLNGKEYKCKVSNKALPAPIEKTISKAKGQPREPQVYTLPPCREEMTKNQVSLSCAVKGFYPSDIAVEWESNGQPENNYKTTPPVLDSDGSFFLVSKLTVDKSRWQQGNVFSCSVMHEALHNHYTQKSLSLSPG
notes: also called GUCY2c CD3 bispecific
Kd [1]: 0.0241 µM | koff [1]: 0.00916 s⁻¹ | kon [1]: 381000 M⁻¹ s⁻¹ | In vitro Cytotoxicity (nM), T-cell retargeting assay [2]: 0.772 nM | DELFIA TRF [3]: 112 | DELFIA TRF [4]: 107 | DELFIA TRF [5]: 104 | DELFIA TRF [6]: 108 | DELFIA TRF [7]: 19200 | DELFIA TRF [8]: 110 | DELFIA TRF [9]: 93.5 | DELFIA TRF [10]: 133 | Kd [11]: 0.00062 µM | binding result [12]: binds | Kd [13]: 0.024 µM | koff [13]: 0.00999 s⁻¹ | kon [13]: 418000 M⁻¹ s⁻¹ | Kd [14]: 0.0902 µM | koff [14]: 0.0116 s⁻¹ | kon [14]: 129000 M⁻¹ s⁻¹ | Kd [15]: 0.00747 µM | koff [15]: 0.000758 s⁻¹ | kon [15]: 101000 M⁻¹ s⁻¹ | Kd [16]: 0.124 µM | koff [16]: 0.09 s⁻¹ | kon [16]: 744000 M⁻¹ s⁻¹

— patent US20230340151A1 (Pfizer, published 2023)
